Substitutions are numbered along the chain they refer to.

Test [1] deals with T1, hAng-1 (human, UniProt Q15389).
T1 chain: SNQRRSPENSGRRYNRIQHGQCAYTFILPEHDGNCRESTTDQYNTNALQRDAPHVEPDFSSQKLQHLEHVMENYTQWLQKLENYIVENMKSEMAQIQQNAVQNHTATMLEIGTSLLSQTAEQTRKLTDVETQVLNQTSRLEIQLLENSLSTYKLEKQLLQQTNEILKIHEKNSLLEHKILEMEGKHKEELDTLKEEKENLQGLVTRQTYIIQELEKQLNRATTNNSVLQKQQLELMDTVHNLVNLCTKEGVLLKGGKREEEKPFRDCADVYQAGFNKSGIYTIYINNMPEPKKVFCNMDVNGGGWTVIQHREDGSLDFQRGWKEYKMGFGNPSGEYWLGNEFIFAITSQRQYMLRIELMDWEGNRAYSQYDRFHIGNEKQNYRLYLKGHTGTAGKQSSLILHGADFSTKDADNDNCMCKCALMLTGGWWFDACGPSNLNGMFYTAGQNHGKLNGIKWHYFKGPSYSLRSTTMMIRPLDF
The test is described as follows: competition ELISA (no inhibition).

Another test deals with T2, mAng-2 (mouse, UniProt O35608).
T2 chain: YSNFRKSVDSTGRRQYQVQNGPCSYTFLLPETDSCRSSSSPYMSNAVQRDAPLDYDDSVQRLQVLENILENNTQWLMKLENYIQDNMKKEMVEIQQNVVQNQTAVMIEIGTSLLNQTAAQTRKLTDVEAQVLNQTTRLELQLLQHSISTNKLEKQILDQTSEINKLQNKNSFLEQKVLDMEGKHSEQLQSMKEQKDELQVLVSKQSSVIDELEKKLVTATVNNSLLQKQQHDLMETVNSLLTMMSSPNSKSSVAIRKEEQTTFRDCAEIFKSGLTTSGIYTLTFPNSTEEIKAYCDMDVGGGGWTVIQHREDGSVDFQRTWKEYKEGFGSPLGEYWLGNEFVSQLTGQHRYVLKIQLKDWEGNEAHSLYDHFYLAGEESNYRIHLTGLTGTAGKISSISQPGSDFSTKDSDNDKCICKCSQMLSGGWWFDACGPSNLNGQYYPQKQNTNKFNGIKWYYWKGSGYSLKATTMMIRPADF
The test is described as follows: competition ELISA (Tie2-Fc). Background: An ELISA detects its analyte on a solid surface through an enzyme-linked reagent.

For a further test, the target named is T3, hAng-2 (human, UniProt O15123).
T3 chain: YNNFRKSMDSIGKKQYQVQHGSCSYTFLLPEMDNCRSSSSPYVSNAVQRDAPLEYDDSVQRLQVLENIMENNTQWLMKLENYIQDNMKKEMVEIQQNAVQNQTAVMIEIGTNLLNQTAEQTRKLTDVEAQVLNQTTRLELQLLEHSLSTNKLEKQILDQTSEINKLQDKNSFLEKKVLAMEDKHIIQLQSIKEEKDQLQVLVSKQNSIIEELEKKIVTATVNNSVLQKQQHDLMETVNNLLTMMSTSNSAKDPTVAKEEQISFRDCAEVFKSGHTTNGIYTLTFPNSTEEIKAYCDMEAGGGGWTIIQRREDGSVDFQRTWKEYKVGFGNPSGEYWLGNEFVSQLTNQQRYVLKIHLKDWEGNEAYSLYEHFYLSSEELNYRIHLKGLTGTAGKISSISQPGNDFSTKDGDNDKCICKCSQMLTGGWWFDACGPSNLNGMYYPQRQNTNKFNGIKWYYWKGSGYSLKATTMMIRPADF
The experiment in a line: competition ELISA (Tie2-Fc).

Test [2] concerns the target T1, hAng-1. The test is described as follows: competition ELISA (Tie2-Fc).

B1: Ab 553 (antibody, V domains shown)
VH: QVQLVQSGAEVKKPGASVKVSCKASGYTFTSYAMHWVRQAPGQRLEWMGWINAGNGNTKYSQKFQGRVTITRDTSASTAYMELSGLRSEDTAVYYCARGVDDYGGNSWAFDIWGQGTMVTVSS
VL: DIVMTQSPLSLPVTPGEPASISCRSSQSLLHSNGYNYLDWYLQKPGQSPQLLIYLGSNRASGVPDRFTGSGSATDFTLRISRVEAEDVGVYYCMQALQTPLTFGGGTKVEIK
With B1, the binding result with hAng-1 [1] is “no binding”.

B2: Ab 528 (antibody, V domains shown)
VH: QVQLVQSGAEVKKPGSSVKVSCKASGGTFSSYAISWVRQAPGQGLEWMGGIIPIFGTANYAQKFQGRVTITADESTSTAYMELSSLRSEDTAVYYCARGVVGDFDWLSFFDYWGQGTLVTVSS
VL: SYELTQPPSVSVSPGQTASITCSGDKLGYTYTSWFQQKPGQSPVLVIFQDFKRPSGIPERFSGSNSGNTATLTISGTQAMDEADYYCQAWDSTTAVVFGTGTKVTVL
Turning to B2, the binding result with hAng-1 [1] is listed as “no binding”.

B3: Ab 537 (antibody, V domains shown)
VH: QVQLVQSGAEVKKPGSSVKVSCKASGGTFSSYAISWVRQAPGQGLEWMGGIIPILGIANYAQKFQGRVTITADKSTSTAYMELSGLGSEDTAVYYCARGSSDAAVAGMWGQGTLVTVSS
VL: QSVLTQPPSVSAAPGQDVTISCSGNNSNIGNNYVSWYQQVPGTAPKLLVYDNHKRPSGISDRFSGSKSDTSATLDITGLQPGDEADYYCGTWDTSLSANWVFGGGTKLTVL
As to B3, in the test with hAng-1 [1], the binding result is “no binding”.

B4: Ab 540 (antibody, V domains shown)
VH: QVQLVQSGAEVKKPGSSVKVSCKASGGTFSSYAISWVRQAPGQGLEWMGGIIPILGIANYAQKFQGRVTITADKFTSTAYMELSSLGSEDTAVYYCARAVPGTEDAFDIWGQGTMVTVSS
VL: QSVLTQPPSVSAAPGQKVTISCSGSSSNIGANYVSWYQQLPGTAPKLLIYNNNKRPSGIPDRFSGSKSDTSATLGITGLQTGDEADYYCGAWDSSLSASWVFGGGTKLTVL
Consider B4, for which the binding result with hAng-1 [1] was “no binding”.

B5: Ab 531 (antibody, V domains shown)
VH: EVQLVQSGAEVKKPGSSVKVSCKASGGTFSSYAISWVRQAPGQGLEWMGGIIPILGIANYAQKFQGRVTITADKSTNTAYMELTSLTSDDTAVYYCARDREDTAMVFNYWGQGTLVTVSS
VL: B4 VL with I20V, A31N, N51D, D69G, A91T, S99F
Take B5: the binding result in the test with hAng-1 [1] is reported as “no binding”.

B6: Ab 555 (antibody, V domains shown)
VH: QVQLQESGGGVVQPGRSLRLSCAASGFTFSSYAMHWVRQAPGKGLEWVAVISYDGSNKYYADSVKGRFTISRDNSKNTLYLQMNSLRAEDTAVYYCARSASDHYYDSSGYYSDAFDIWGQGTMVTVSS
VL: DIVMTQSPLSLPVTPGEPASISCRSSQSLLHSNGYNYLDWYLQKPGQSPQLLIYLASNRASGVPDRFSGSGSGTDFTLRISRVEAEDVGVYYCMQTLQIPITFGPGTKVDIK
Consider B6, for which, in the test with hAng-1 [1], the binding result was “no binding”.

B7: Ab 543 (antibody, V domains shown)
VH: QVQLVQSGAEVKKPGSSVKVSCKASGGTFSSYAISWVRQAPGQGLEWMGRIIPILGIANYAQKFQGRVTITADKSTSTAYMELSSLRSEDTAVYYCARPYYDFWSGPGGMDVWGQGTTVTVSS
VL: not shown
As to B7, the binding result with hAng-1 [1] was “no binding”.

B8: Ab 565 (antibody, V domains shown)
VH: QVQLVQSGAEVKKPGSSVKVSCKASGGTFSSYAISWVRQAPGQGLEWMGGIIPIFGTANYAQKFQGRVTITADESTSTAYMELSSLRSEDTAVYYCARSPIYYDILTGIDAFDIWGQGTMVTVSS
VL: EIVLTQSPGTLSLSPGERATLSCRASQSVSSSSLAWYQQKPGQAPRLLVYAASSRATGIPDRFSGSGSGTDFTLTISRLEPEDFAVYYCQHYGSSPRTFGQGTKVEIK
As to B8, the IC50 in the test with mAng-2 and with hAng-2 was 0.26 nM throughout. Also, the binding result with hAng-1 [1] is listed as “no binding”.

B9: Ab 546 (antibody, V domains shown)
VH: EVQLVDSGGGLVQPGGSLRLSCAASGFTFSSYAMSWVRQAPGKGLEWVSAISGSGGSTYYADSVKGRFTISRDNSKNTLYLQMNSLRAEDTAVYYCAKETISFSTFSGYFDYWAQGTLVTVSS
VL: QSVLTQPSSVSEAPRQRVTISCSGSASNIGANGVSWYHQVPGKAPRLLLSHDGLVTSGVPDRLSVSKSGTSASLAISGLHSDDEGDYYCAVWDDSLNAVVFGGGTKLTVL
Consider B9, for which the values for the IC50 with mAng-2 and with hAng-2 were 1.09 nM and 0.37 nM, respectively. In addition, the binding result with hAng-1 [1] is reported as “no binding”.

B10: Ab 544 (antibody, V domains shown)
VH: QVQLVQSGAEVKKPGASVKVSCKASGGTFSSYAISWVRQAPGQGLEWMGGIIPIFGTANYAQKFQGRVTITADESTSTAYMELSSLRSEDTAVYYCARFESGYWGDAFDIWGQGTMVTVSS
VL: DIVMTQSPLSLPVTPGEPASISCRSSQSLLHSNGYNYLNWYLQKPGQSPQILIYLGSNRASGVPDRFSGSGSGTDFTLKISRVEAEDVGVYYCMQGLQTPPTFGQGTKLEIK
On to B10, for which the IC50 was 1.82 nM with mAng-2, 0.97 nM with hAng-2 and 23.3 nM with hAng-1 [2].

B11: Ab 535 (antibody, V domains shown)
VH: B10 VH with A16S, E74K, R98A, E100S, S101P, G102F, Y103T, W104E, G105T
VL: QSVLTQPPSVSAAPGQKVTISCSGSNSNIGNNFVSWYQQLPGTAPKLLVYDNNKRPSGIPDRFSGSKSGTSATLGITGLQTGDEADYYCGTWDSSLSAAEVVFGGGTKLTVL
As for B11, the binding result with hAng-1 [1] is listed as “no binding”.

B12: Ab 533 (antibody, V domains shown)
VH: EVQLVQSGGGVVQPGRSLRLSCAASGFTFSSYGMHWVRQAPGKGLEWVSYISSSGSTIYYADSVKGRFTISRDNAKNSLYLQMNSLRAEDTAVYYCARDLLDYDILTGYGYWGQGTLVTVSS
VL: SYELTQPPSVSVSPGQTARITCSGDALPKQYAYWYQQKPGQAPVLVIYKDSERPSGIPERFSGSSSGTTVTLTISGVQAEDEADYYCQSADSSHVVFGGGTKLTVL
On to B12, for which the IC50 in the test with mAng-2 is 0.08 nM; in the test with hAng-2, 0.3 nM. Further, the binding result with hAng-1 [1] is given as “no binding”.

B13: Ab 551 (antibody, V domains shown)
VH: QVQLVQSGAEVKKPGSSVKVSCKASGGTFSSYAISWVRQAPGQGLEWMGGIIPIFGTANYAQKFQGRVTITADESTSTAYMELSSLRSEDTAVYYCARGYDFWSGYSLDAFDIWGQGTMVTVSS
VL: not shown
Consider B13, for which the binding result with hAng-1 [1] was “no binding”.

Broadly, the IC50 is the midpoint of a concentration-inhibition curve. High values mean a need for much substance, low ones inhibition by little substance.

The record behind these values is patent US7521053 (dated 2009).
